Columns and labels:
[1] = test system: proliferating neural progenitor cells; experiment: Immunoblotting of Sox2 and DCX in proliferating neural progenitor cells; format: cell-based, rat; details: MANF 20 ng/ml, proliferation condition
Protocol: Specifically, hippocampal-derived neural stem cells were isolated from the brain of E16 rat embryos. Hippocampal ridges were minced from the embryonic forebrains of E16 rats using sterile fine tweezers under a dissecting microscope. The tissues were collected, mechanically separated using a pipette in Ca^2+/Mg^2+-freeHBSS (Invitrogen) solution, and planted at 19,000 cells/cm^2 in 35 mm culture dishes precoated with 15 µg/ml poly-L-ornithine and 1 µg/ml fibronectin (Sigma). The cells were cultured under the condition of 5% CO2 for 3 days using a serum-free N2 medium (medium for proliferation) supplemented with 10 ng/mL basic fibroblast growth factor(bFGF, Invitrogen). Thereafter, the cells were removed using 0.05% trypsin/EDTA (ethylene-diamine-tetraacetic acid), and neural progenitor cells were planted on a 12 mm glass coverglass (Belco) for immunostaining and on a 100 mm dish for immunoblotting and cultured in N2 medium for proliferation containing bFGF for 1 day. Thereafter, in the proliferation condition, the medium continuously containing bFGF was treated with MANF at the indicated concentration and cultured for 2-3 days; and in the differentiation condition, MANF was added to the medium for differentiation not containing bFGF, which was cultured for 3-7 days. In the control group (vehicle), physiological saline was added in the same volume instead of MANF.

[2] = test system: primary cultured neural progenitor cells; experiment: Immunofluorescence staining of Ki67, Nestin, TuJ1 and NeuN in primary cultured neural progenitor cells; format: cell-based, rat; details: MANF 30 ng/ml, compared to the control group
Protocol: To investigate whether or not MANF promotes proliferation of neural progenitor cells, the primary cultured neural progenitor cells are treated with MANF, and then proliferating cells were fluorescently stained with Ki67 antibody, neural progenitor cells with Nestin antibody, immature nerve cells with TuJ1, and mature neural cells with NeuN antibody.
Specifically, the neural progenitor cells were cultured in the same manner as in Example 1, and after removing all the mediums, they were washed once with PBS. After being fixed for 15 minutes with 4% PFA (paraformaldehyde) in PBS, they were washed twice with PBS again. After washing the cover slip to which the cells were attached with PBST, 0.5% Triton X-100-PBST was added thereto and reacted for 10 minutes. Again, blocking was performed with 2% BSA in PBST or 5% normal serum (Normal donkey serum: Jackson lab, 017-000-121, Normal horse serum: Sigma, H0146); and as primary antibodies, rb-Ki67(Abcam, AB15580, 1:500), mo-NeuN(Millipore, MAB377B, 1:500), mo-Tuj1(Sigma, T8660, 1:3000), mo-Flag(Sigma, F1804, 1:500), and mo-Nestin(Millipore, MAB353, 1:200) were added to 2% BSA in PBS and reacted overnight at 4° C. The next day, they were washed with PBST, and then, as secondary antibodies, mo-Alexa 488(Invitrogen, A21202, 1:700), mo-Cy3(Jackson lab, 715-165-151, 1:500), and rb-Alexa 488(Jackson lab, 711-546-152, 1:700) were added to PBST and reacted at room temperature for 1 hour. Cell nuclei were stained with DAPI (1 µg/mL, Sigma), mounted on slides, scanned with a confocal laser microscope, and photographed. Heo SR et al.(2009) and Han AM t al.(2012) were referred to in the above method.
In the case of cell count confirmation and data analysis, the number of cell nuclei labeled with DAPI and the number of cells stained with each differentiation marker were counted, respectively, and the number of each differentiation marker was expressed as a percentage of the number of cell nuclei. In this case, the number of cells that matched exactly in shape and location and had the shape of a nerve cell was counted. For example, in NeuN cell count measurement, the number of cells with a round shape in a nucleus and overlapping staining with DAPI was counted, and nonspecific signals appearing at the edge of the slide were not included. In data analysis, the control group and the experimental group were compared through one-way analysis of variance (ANOVA). The statistical significance of the data was set as p<0.05.

[3] = test system: IBO-administered memory impairment and autism model; experiment: Y-shaped maze experiment; format: in vivo, rat; details: MANF-AAV-hMSC transplanted into the hippocampus of IBO rats
Protocol: (§1) Memory impairment and autism models were prepared by administering IBO to the entorhinal cortex of the rats, wherein the IBO destroys granule cells of the dentate gyrus (DG) and pyramidal cells of the hippocampus, which receive nerve signals input from the entorhinal cortex. Specifically, the rats were anesthetized with equitensin (10% ethanol containing 350 mM pentobarbital sodium, 250 mM chloral hydrate, 85 mM MgSO and 40% propylene glycol). The incisor bar of a stereotaxic device (Stoelting Co., U.S.A.) was placed 3.4 mm below the interaural line, and the injection needle angle was fixed at […] right from the center of the sagittal plane. 1.5 ul of IBO (1 mg/ml) was injected into the entorhinal cortex of the rat using the stereotaxic device. The IBO was injected into three locations of first, AP: -8.4, ML: -4.8, DV: -4.6; Second, AP; -8.4, ML: -4.8, DV: […]; Third, AP: -8.8, ML: - 3.65, DV: -3.4 (FIG. 7).
(§2) After 2-3 IBO injections, each group was randomly classified into an IBO-administrated group (negative control group), and a GFP-AAV-hMSC-administrated group (GFP-AAV) and a MANF-AAV-hMSC-administrated group […] as a control group. A rest period of one week was provided. […]

[4] = test system: IBO-administered memory impairment and autism model; experiment: Open space behavior test (anxiety behavior); format: in vivo, rat
Protocol: as §1, §2

B1: MANF: one of 16 or more growth factors secreted into nerve stem cells by cerebrovascular cells; amino acid sequence of SEQ ID NO: 1 (protein)
chain: MRRMWATQGLAVALALSVLPGSRALRPGDCEVCISYLGRFYQDLKDRDVTFSPATIENELIKFCREARGKENRLCYYIGATDDAATKIINEVSKPLAHHIPVEKICEKLKKKDSQICELKYDKQIDLSTVDLKKLRVKELKKILDDWGETCKGCAEKSDYIRKINELMPKYAPKAASARTDL
modifications: MANF
B1 was tested, and the DCX immunoblot [1] was “significantly increased”, the Sox2 immunoblot [1] was “significantly increased” and the Ki67-stained proliferating cells [2] was “significantly increased”. For the same molecule, the “immature neural cells (TuJ1)” value [2] was “also increased, but there was no statistical significance”, the “mature neural cells (NeuN)” value [2] was “also increased, but there was no statistical significance” and the “nestin-stained neural progenitor cells” value [2] was “significantly increased”. For the same molecule, the “memory ability in Y-shaped maze test” value [3] was “memory improvement”, the “time in the center” value ([4]; compared to the IBO group) was “significantly increased” and the “time in the center” value ([4]; compared to the MSC group) was “also increased”.

Source: US20230363418A1, “COMPOSITION FOR PREVENTING OR TREATING NEUROPSYCHOLOGIC DISEASE, COMPRISING MANF” (CEFO CO., LTD., priority 2020, published 2023)
